Key:
[1] = target: T1, ZCCHC3-FL (Zinc Finger CCHC-Type Containing 3 with C-terminal FLAG epitope tag) (human, UniProt Q9NUD5 1-403); assay: co-IP; HEK 293T lysates, FLAG-tagged bait on α-FLAG-M2 antibody bound to Protein G Dynabeads, 3 h at 4°C, 5 washes; endogenous ORF1p detected with polyclonal α-L1Hs-ORF1p; bands quantified with ImageJ (IP/input compared with empty vector); details: partners not purified
T1 construct: ZCCHC3 (Zinc Finger CCHC-Type Containing 3), human; made by PCR amplification of V5-TEV-ZCCHC3 (Ultimate ORF clone IOH40787); legend calls it the 44 kD full-length ZCCHC3-FL; also called FLAG-tagged ZCCHC3; wild-type ZCCHC3-FL; source: HEK 293T, transfected, in lysate; not shown: FLAG, C-terminal, kept
T1 sequence (looked up): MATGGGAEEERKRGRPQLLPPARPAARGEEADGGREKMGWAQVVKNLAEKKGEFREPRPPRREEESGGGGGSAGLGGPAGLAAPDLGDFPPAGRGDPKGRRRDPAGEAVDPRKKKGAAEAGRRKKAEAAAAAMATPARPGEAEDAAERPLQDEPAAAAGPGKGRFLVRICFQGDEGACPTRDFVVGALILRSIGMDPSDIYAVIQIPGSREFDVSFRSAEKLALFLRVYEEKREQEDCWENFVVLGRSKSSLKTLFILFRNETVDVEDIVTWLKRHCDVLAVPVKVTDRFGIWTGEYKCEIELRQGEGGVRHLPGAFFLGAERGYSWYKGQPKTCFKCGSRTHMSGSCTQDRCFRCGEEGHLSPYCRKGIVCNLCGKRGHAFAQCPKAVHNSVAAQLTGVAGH

[2] = target: T2, ZCCHC3-FL-7AA (zinc knuckle mutant of ZCCHC3-FL) (human, UniProt Q9NUD5 1-403, C353,366,372,375A | C353,366,372,375A | C353,366,372,375A | C353,366,372,375A | …); assay: as above; details: partners not purified
T2 construct: also called zinc-finger mutant ZCCHC3-FL-7AA; source: HEK 293T, transfected, in lysate; not shown: FLAG, C-terminal, kept
T2 sequence (looked up): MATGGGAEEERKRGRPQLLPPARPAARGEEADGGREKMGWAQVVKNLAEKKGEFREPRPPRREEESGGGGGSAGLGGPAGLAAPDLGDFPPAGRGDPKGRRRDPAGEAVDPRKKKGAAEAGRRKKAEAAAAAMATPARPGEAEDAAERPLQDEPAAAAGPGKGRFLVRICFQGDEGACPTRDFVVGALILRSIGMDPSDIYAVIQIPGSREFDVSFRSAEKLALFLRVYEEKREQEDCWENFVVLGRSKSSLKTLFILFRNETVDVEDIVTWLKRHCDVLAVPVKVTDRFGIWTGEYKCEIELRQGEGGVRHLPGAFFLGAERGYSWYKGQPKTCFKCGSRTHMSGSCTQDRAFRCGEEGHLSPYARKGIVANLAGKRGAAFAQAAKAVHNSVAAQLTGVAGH

- fold increase over empty vector controls (IP/input band intensity) [1]: 5 fold
- fold reduction against wild-type ZCCHC3-FL (band intensity) [2]: 2 fold
B1: endogenous L1 ORF1p (natural protein, human (endogenous in HEK 293T), UniProt Q9UN81 1-338, looked up)
chain: MGKKQNRKTGNSKTQSASPPPKERSSSPATEQSWMENDFDELREEGFRRSNYSELREDIQTKGKEVENFEKNLEECITRITNTEKCLKELMELKTKARELREECRSLRSRCDQLEERVSAMEDEMNEMKREGKFREKRIKRNEQSLQEIWDYVKRPNLRLIGVPESDVENGTKLENTLQDIIQENFPNLARQANVQIQEIQRTPQRYSSRRATPRHIIVRFTKVEMKEKMLRAAREKGRVTLKGKPIRLTADLSAETLQARREWGPIFNILKEKNFQPRISYPAKLSFISEGEIKYFIDKQMLRDFVTTRPALKELLKEALNMERNNRYQPLQNHAKM
notes: LINE-1 ORF1 protein, endogenous in HEK 293T cells; Endogenous ORF1p comes from many L1 loci; also called endogenous ORF1p; source: endogenous, HEK 293T lysate

From PMC10351740, “ZCCHC3 is a stress granule zinc knuckle protein that strongly suppresses LINE-1 retrotransposition” (PLOS Genetics, 2023)
